From article PMC7347513 (Cancer Immunology, Immunotherapy : CII, 2020) come the findings set out here.

In assay [1] the target is T1, HLA A*0201 presenting the HCMV pp65 peptide […], on cells (human HLA-A*02:01 and B2M; HCMV pp65 …, strain).
T1 construct: copies: + +
Description: flow cytometry on cells. To be noted: one partner purified.

The target in assay [2] is T2, HLA A*0201 on MRC-5 cells loaded with control peptide 13 (…, Trypanosoma cruzi KMP-11) (human HLA-A*02:01 and B2M; Trypanosoma …, strain).
T2 construct: copies: + +
Description: flow cytometry on cells. To be noted: one partner purified. (In general: Flow cytometry measures light scatter and fluorescence of single cells or particles in a stream.)

Assay [3] deals with T3, biotinylated HLA B*0702/HCMV pp65 peptide … complex (Homo sapiens HLA-B*07:02/B2M; HCMV pp65 …, strain, biotin (in vivo, BirA, AviTag)).
T3 construct: copies: + +
Kind of assay: ELISA. To be noted: both partners purified. In general terms: An ELISA detects its analyte on a solid surface through an enzyme-linked reagent.

The target in assay [4] is T4, HLA A*2402 presenting HCMV pp65 peptide … on cells (Homo sapiens HLA-A*24:02/B2M; HCMV pp65 …, strain).
T4 construct: copies: + +
Kind of assay: flow cytometry on cells. To be noted: one partner purified.

Assay [5] deals with T5, biotinylated HLA A*2402/HCMV pp65 peptide … complex (Homo sapiens HLA-A*24:02/B2M; HCMV pp65 …, strain, biotin (in vivo, BirA, AviTag)).
T5 construct: copies: + +
Kind of assay: ELISA. The following applies: both partners purified.

Assay [6] addresses T6, biotinylated HLA B*3501/HCMV pp65 peptide … complex (Homo sapiens HLA-B*35:01 and B2M; HCMV …, strain, biotin (in vivo, BirA, AviTag)).
T6 construct: copies: + +
Kind of assay: ELISA. The following applies: both partners purified.

In assay [7] the target is T7, HLA B*3501 presenting HCMV pp65 peptide … on cells (Homo sapiens HLA-B*35:01 and B2M on …, strain).
T7 construct: copies: + +
Description: flow cytometry on cells. The following applies: one partner purified.

Assay [8] addresses T8, biotinylated HLA B*0801/HCMV IE1 peptide … complex (Homo sapiens HLA-B*08:01 and B2M; HCMV …, strain, biotin (in vivo, BirA, AviTag)).
T8 construct: copies: + +
Kind of assay: ELISA. The following applies: both partners purified.

B1: C1-ETA´ immunotoxin (HLA A*0201-restricted, HCMV-specific Fab antibody C1 coupled to Pseudomonas Exotoxin A) (Fab, V domains shown)
VH: EVQLVQSGAEVKKPGSSVKVSCKASGGTFSSYAISWVRQAPGQGLEWMGGIIPIFGTANYAQKFQGRVTITADESTSTAYMELSSLRSEDTAVYYCARGLAAPDYFDYWGQGTLVTVSS
VL: QSVVTQPPSVSGAPGQRVTISCTGSSSNIGAGYDVHWYQQLPGTAPKLLIYGNSNRPSGVPDRFSGSKSGTSASLAITGLQAEDEADYYCQSYDSSLSGPFYVFGTGTKVTVL
notes: source: E. coli TG1
On to B1, for which the binding result in assay [1] is “binds”; in assay [2] it was “no binding (tested: 50 µg/ml)”.

B2: Fab D10 (Fab, V domains shown)
VH: EVQLVQSGGGVVQPGRSLRLSCAASGFTFSSYGMHWVRQAPGKGLEWVAVISYDGTNTDYADSVKGRFTISRDNSKNTLYLQMNSLRAEDTAVYYCARARGIGVSGTLYFDFWGQGTLVTVSS
VL: EIVMTQSPGTLSLSPGERATLSCRASQSVSSSYLAWYQQKPGQAPRLLIYGASTRATGIPDRFSGSGSGTDFTLTINRLEPEDFAVYYCQQYGSSPGTFGQGTRLEIK
notes: source: E. coli TG1, purified (IMAC, Talon beads)
As for B2, the binding result in assay [3] is given as “binds”.

B3: biotinylated Fab C12.2 (Fab, V domains shown)
VH: QITLKESGPTLVKPTQTLTLTCTFSGFSLSTSGVAVGWIRQPPGKALEWLALIYWDDDKHYSPSLKNRLTITKDTSKNQVVLTLTNMDPVDTATYYCARMTYSGSWYSFYYFDYWGQGTLVTVSS
VL: EIVLTQSPATLSFSPGERATLSCRASQSVGSYLAWYQQRPGQAPRPLIYDATNRATGIPTRFSGSGSGTDFTLTISSLEPEDFATYYCQHRRTFGRGTKLEIK
notes: source: E. coli TG1, biotinylated in vivo, purified (IMAC, Talon beads)
Turning to B3, the binding result in assay [4] is on record as “binds”.

B4: Fab C12/2 (Fab, V domains shown)
VH: B3 VH
VL: B3 VL
Take B4: the binding result in assay [5] was “binds”.

B5: Fab C7 (Fab, V domains shown)
VH: EVQLVQSGAEVKKPGASVKVSCKASGYTFTSYYMHWVRQAPGQGLEWMGIINPSDGSTSYAQKFQGRVTMTRDTSTSTAYMELSSLRSEDTAVYYCARYIGIMDVWGQGTTVTVSS
VL: not shown
notes: as for B2
For the molecule B5, the binding result in assay [3] is reported as “binds”.

B6: Fab C5 (Fab, V domains shown)
VH: EVQLVQSGAEVKRPGASVKVSCKASGYTFTNYDINWVRQATGQGLEWMGWMNPNSGNTGYAQKFQGRVTITADKSTSTAYMELSSLRSEDTAVYYCARQGRLRFLEWYMFDPWGQGTLVTVSS
VL: DVVMTQSPLSLPVTPGEPASISCRSSQSLLHSNGYNYLDWYLQKPGQSPQLLIYLGSIRASGVPDRVTGSGSGTDFTLQISRVEAEDVGVYYCMQGLQTPYTFGQGTKLEIK
notes: as for B2
With B6, the binding result in assay [6] was “binds”.

B7: biotinylated Fab C5 (Fab, V domains shown)
VH: B6 VH
VL: B6 VL
notes: as for B3
As to B7, in assay [7], the binding result is reported as “binds”.

B8: Fab 2A2 (Fab, V domains shown)
VH: QVQLVQSGAEVKKPGASVKVSCKASGYTFTDYYVHWVRQAPGQGLEWMGRINPNSGGTNYAQKFQGRVTMTRDASISTAYMELSRLRSDDTAVYYCAREMGYGGKSEDYWGQGTLVTVSS
VL: SYVLTQPPSLSVAPGKTARIICGGNNIGSKSVHWYQQKPGQPPVLVVHDDGDRPSGIPERFSGSNSGITATLTITGVEAGDEADYYCQVWDYSSDHVIFGGGTKLTVL
notes: as for B2
In the case of B8, the binding result in assay [8] is given as “binds”.
